Measurements taken from article PMC7150784.

Key:
[1] = molecular target: lizard alpha-1 nAChR orthosteric site mimotope; assay: BLI
[2] = molecular target: amphibian alpha-1 nAChR orthosteric site mimotope (Xenopus laevis); assay: BLI; Octet RED 96; […] (1 µg/mL) […]; running buffer 1X DPBS with 0.1% BSA and 0.05% Tween-20; […], in triplicate

Substance: alpha-cobratoxin (from UniProt P01391 1-71) (natural protein)
- AUC (potency) above that on the rodent mimotope [1]: 30%
- AUC (potency) above that on the lizard mimotope [2]: 50%
- AUC (potency) above that on the rodent mimotope [2]: 98%
